Earlier results on 1 substance are cited in article PMC7616283.

This series deals with CCR8 (Homo sapiens) (UniProt P51685).
CCR8 (Homo sapiens), sequence (P51685 whole entry): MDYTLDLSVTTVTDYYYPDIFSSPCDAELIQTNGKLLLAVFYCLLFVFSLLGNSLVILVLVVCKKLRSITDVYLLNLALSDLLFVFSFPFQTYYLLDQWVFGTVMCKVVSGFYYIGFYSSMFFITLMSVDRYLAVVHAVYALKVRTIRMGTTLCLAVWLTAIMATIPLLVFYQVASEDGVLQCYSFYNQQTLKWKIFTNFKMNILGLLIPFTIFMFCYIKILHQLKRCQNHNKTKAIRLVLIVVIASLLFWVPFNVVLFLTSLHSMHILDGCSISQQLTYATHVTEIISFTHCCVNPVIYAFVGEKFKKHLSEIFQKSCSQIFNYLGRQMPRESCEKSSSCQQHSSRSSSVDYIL

CCL18, sequence (P55774 24-89): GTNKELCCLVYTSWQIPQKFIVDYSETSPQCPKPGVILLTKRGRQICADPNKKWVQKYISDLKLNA

In the case of CCL18 (from UniProt P55774), the Kd is 1.9 nM.
